Measurements reported in the supplement of paper PMC9233669.
Variants at the floor of the assay were thinned out.

What was measured:
[1] = system: biotinyl-Phe-oxazolone; assay: self-aminoacylation, catalytic enhancement (BFO) (fold over background); higher = more active; k-Seq, kA / k0A0; sequences stand for … in GGGAAUGGAUCCACAUCUACGAAUUC…UUCACUGCAGACUUGACGAAGCUG
Method in brief: (§1)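 The uncatalyzed rate is the low-activity peak of a bimodal Gaussian fit, and catalytic enhancement is median kA divided by it. The kA values came from pseudo-first-order fits, with 1000 bootstraps, of per-sequence fraction reacted measured by streptavidin capture, triplicate qPCR and Illumina sequencing. Mutagenized RNA pools with a 21-nt variable region (0.43 μM) were reacted with each biotinyl-aminoacyl-oxazolone at 2–1250 μM in 50 μL HEPES/NaCl/KCl/MgCl2/CaCl2 buffer with 5% acetonitrile, pH 6.9–7.0, for 90 minutes at room temperature.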

[2] = system: biotinyl-Ile-oxazolone; assay: self-aminoacylation, catalytic enhancement (BIO) (fold over background); higher = more active; k-Seq, kA / k0A0; sequences stand for … in GGGAAUGGAUCCACAUCUACGAAUUC…UUCACUGCAGACUUGACGAAGCUG
Method in brief: as §1

[3] = system: biotinyl-Met-oxazolone; assay: self-aminoacylation, catalytic enhancement (BMO) (fold over background); higher = more active; k-Seq, kA / k0A0; sequences stand for … in GGGAAUGGAUCCACAUCUACGAAUUC…UUCACUGCAGACUUGACGAAGCUG
Method in brief: as §1

[4] = system: biotinyl-Val-oxazolone; assay: self-aminoacylation, catalytic enhancement (BVO) (fold over background); higher = more active; k-Seq, kA / k0A0; sequences stand for … in GGGAAUGGAUCCACAUCUACGAAUUC…UUCACUGCAGACUUGACGAAGCUG
Method in brief: as §1

[5] = system: biotinyl-Leu-oxazolone; assay: self-aminoacylation, catalytic enhancement (BLO) (fold over background); higher = more active; k-Seq, kA / k0A0; sequences stand for … in GGGAAUGGAUCCACAUCUACGAAUUC…UUCACUGCAGACUUGACGAAGCUG
Method in brief: as §1

[6] = system: biotinyl-Trp-oxazolone; assay: self-aminoacylation, catalytic enhancement (BWO) (fold over background); higher = more active; k-Seq, kA / k0A0; sequences stand for … in GGGAAUGGAUCCACAUCUACGAAUUC…UUCACUGCAGACUUGACGAAGCUG
Method in brief: as §1

Row | Sequence | self-aminoacylation [1] | self-aminoacylation [2] | self-aminoacylation [3] | self-aminoacylation [4] | self-aminoacylation [5] | self-aminoacylation [6]
1 | AUUCAGCUAGGUCAUCGGGGG [Fam2.2 aminoacylation ribozyme variant] | 16.7 | 3.18 | 2.69 | 2.23 | 3.48 | 2.72
2 | AUUCACCUAGGUCAACGGGGG [Fam2.2 aminoacylation ribozyme variant] | 12.7 | 1.75 | 1.83 | 1.84 | 2.19 | 2.31
3 | AUUACCCUGGUCAGCGCGUGA [Fam2.1 aminoacylation ribozyme variant] | 35.3 | 3.45 | 5.84 | 3.95 | 6.5 | 6.87
4 | CUCACCCUGGUCAUCGAGUGA [Fam2.1 aminoacylation ribozyme variant] | 27.1 | 3.71 | 5.33 | 4.49 | 7.38 | 6.74
5 | AAGUCUGCUAAUAGUCGCUAG [Fam3.1 aminoacylation ribozyme variant] | 3.35 | 0.989 | 0.995 | 0.983 | 1.29 | 1.81
6 | CUACUUCAAAGGAUCGGUCUG [Fam1A.1 aminoacylation ribozyme variant] | 0.753 | 0.925 | 1.04 | 0.902 | 0.912 | 0.738
7 | ACGUUUGUUAAUAGUCGCAAG [Fam3.1 aminoacylation ribozyme variant] | 3.28 | 1.85 | 2.07 | 1.69 | 2.19 | 1.71
8 | AAGUUUGCUAAUUGUAGCAAG [Fam3.1 aminoacylation ribozyme variant] | 0.987 | 0.854 | 0.979 | 1.03 | 0.95 | 1.02
9 | AUACACCGAGGUCAUCGGGUG [Fam2.2 aminoacylation ribozyme variant] | 28.8 | 4.24 | 5.37 | 4.34 | 4.55 | 4.15
10 | CUACUUCGAACAAUCUGUCUG [Fam1A.1 aminoacylation ribozyme variant] | 0.413 | 0.539 | 0.51 | 0.576 | 0.576 | 0.337
11 | AUUUACCUAGGUCCUCGGGUG [Fam2.2 aminoacylation ribozyme variant] | 28.6 | 3.33 | 4.15 | 3.3 | 6.13 | 4.31
12 | AUCCACCUAGGUCCUCGGGUG [Fam2.2 aminoacylation ribozyme variant] | 31.1 | 3.76 | 6.2 | 4.71 | 6.47 | 6.83
13 | AAGUUUGCUAACAGUCGCAAG [Fam3.1 aminoacylation ribozyme variant] | 21.1 | 1.18 | 1.29 | 1.06 | 0.961 | 5.51
14 | AUUACCCUGGUCAGCGACUGA [Fam2.1 aminoacylation ribozyme variant] | 1.03 | 1.12 | 1.3 | 1.31 | 1.05 | 1.94
15 | CUAUUUCAAACAAUCAGUCUG [Fam1A.1 aminoacylation ribozyme variant] | 4.29 | 0.795 | 0.721 | 0.852 | 0.72 | 1.7
16 | AUUCACCUAGUUCAUCGGGUC [Fam2.2 aminoacylation ribozyme variant] | 0.49 | 0.996 | 0.906 | 1.17 | 0.903 | 0.582
17 | UUUCACAUAGGUCAUCGGGUG [Fam2.2 aminoacylation ribozyme variant] | 56.6 | 5.3 | 7.92 | 5.12 | 8.51 | 7.61
18 | AAGUAUGCUGAUAGUCGCAAG [Fam3.1 aminoacylation ribozyme variant] | 1.92 | 1.84 | 1.94 | 1.65 | 1.91 | 1.96
19 | GCACACUUCAAGCACUCGGUC [Fam1B.1 aminoacylation ribozyme variant] | 4.05 | 2.02 | 2.44 | 2.25 | 1.94 | 3.42
20 | AUCACCCUGGUCAUCGAGUAA [Fam2.1 aminoacylation ribozyme variant] | 6.38 | 2 | 3.93 | 2.21 | 3.44 | 2.89
21 | AAGUUUGGUAAUAGGCGCAAG [Fam3.1 aminoacylation ribozyme variant] | 0.618 | 0.692 | 0.705 | 0.775 | 0.761 | 0.712
22 | CAACUUCAAACAAUCGUUCUG [Fam1A.1 aminoacylation ribozyme variant] | 1.83 | 0.675 | 0.624 | 0.734 | 0.728 | 1.03
23 | AAGUUUGCUAAUACUUGCAAG [Fam3.1 aminoacylation ribozyme variant] | 0.999 | 0.743 | 0.582 | 0.625 | 0.586 | 0.685
24 | AAGUUUGCUAAUAGUCACAAA [Fam3.1 aminoacylation ribozyme variant] | 1.34 | 1.21 | 1.32 | 1.09 | 1.22 | 1.15
25 | AGUACCCUGGUCAUGGAGUGA [Fam2.1 aminoacylation ribozyme variant] | 11 | 2.31 | 2.7 | 2.27 | 3.1 | 2.82
26 | AUUACCCUGGGCAACGAGUGA [Fam2.1 aminoacylation ribozyme variant] | 57.4 | 3.81 | 7.64 | 4 | 10.3 | 10.3
